Paper PMC9482650, “Quantitative fragmentomics allow affinity mapping of interactomes” (Nature Communications, 2022)

T1: APBA2_1, Q99767
T1 sequence (Q99767 563-664, limits assumed, looked up): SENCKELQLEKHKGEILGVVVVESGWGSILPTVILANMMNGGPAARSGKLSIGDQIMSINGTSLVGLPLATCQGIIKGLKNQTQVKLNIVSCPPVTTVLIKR

T2: DLG3_1, Q92796
T2 sequence (Q92796 125-227, limits assumed, looked up): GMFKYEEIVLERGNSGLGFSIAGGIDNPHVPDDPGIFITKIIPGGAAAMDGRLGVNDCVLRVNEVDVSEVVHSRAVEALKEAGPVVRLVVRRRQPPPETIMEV

T3: DLG3_2, Q92796
T3 sequence (Q92796 221-321, limits assumed, looked up): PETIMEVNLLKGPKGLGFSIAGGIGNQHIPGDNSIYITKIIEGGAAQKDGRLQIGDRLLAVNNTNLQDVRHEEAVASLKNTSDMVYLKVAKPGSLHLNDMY

T4: LIN7A, O14910
T4 sequence (O14910 103-200, limits assumed, looked up): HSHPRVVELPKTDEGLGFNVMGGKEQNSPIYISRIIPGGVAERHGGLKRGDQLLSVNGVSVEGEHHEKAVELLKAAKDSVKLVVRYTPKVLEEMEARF

T5: LIN7B, Q9HAP6
T5 sequence (Q9HAP6 88-185, limits assumed, looked up): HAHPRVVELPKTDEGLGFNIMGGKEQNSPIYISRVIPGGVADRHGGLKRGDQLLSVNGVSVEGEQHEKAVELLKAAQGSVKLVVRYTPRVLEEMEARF

T6: PDZRN3_1, Q9UPQ7
T6 sequence (Q9UPQ7 244-349, limits assumed, looked up): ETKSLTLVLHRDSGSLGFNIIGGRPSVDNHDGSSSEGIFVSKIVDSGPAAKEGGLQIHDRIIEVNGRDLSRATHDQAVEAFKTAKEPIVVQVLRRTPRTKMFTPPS

T7: RADIL, Q96JH8
T7 sequence (Q96JH8 971-1071, limits assumed, looked up): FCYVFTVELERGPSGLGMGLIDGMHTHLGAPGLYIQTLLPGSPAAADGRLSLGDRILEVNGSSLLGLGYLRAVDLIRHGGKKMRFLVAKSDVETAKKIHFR

T8: SNTA1, Q13424
T8 sequence (Q13424 82-180, limits assumed, looked up): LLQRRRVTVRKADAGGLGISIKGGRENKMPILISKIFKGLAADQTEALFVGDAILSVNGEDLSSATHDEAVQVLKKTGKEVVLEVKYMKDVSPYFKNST

T9: SNTG1, Q9NSN8
T9 sequence (Q9NSN8 52-150, limits assumed, looked up): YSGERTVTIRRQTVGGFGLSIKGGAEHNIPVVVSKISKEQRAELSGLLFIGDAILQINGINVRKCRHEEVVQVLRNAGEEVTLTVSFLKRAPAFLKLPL

T10: SNTG2, Q9NY99
T10 sequence (Q9NY99 68-166, limits assumed, looked up): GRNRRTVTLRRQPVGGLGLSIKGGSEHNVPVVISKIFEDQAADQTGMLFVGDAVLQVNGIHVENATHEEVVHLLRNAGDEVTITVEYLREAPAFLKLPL

T11: TIAM2, Q8IVF5
T11 sequence (Q8IVF5 885-986, limits assumed, looked up): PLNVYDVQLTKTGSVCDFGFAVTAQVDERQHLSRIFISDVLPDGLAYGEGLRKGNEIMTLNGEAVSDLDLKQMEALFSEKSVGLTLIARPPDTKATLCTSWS

T12: TX1BP3, O14907
T12 sequence (O14907 10-122, limits assumed, looked up): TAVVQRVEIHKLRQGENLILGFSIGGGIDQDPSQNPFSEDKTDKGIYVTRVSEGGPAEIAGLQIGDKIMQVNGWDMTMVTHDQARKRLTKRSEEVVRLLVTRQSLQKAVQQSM


What was measured:
Test in all cases: holdup assay
Set-up in all cases: key: below the threshold = too weak to quantify, mostly under pKd 3.1 to 4
Details in all cases: plain residues with an end cap or a label only (N-terminal biotin on a linker: ado-ado)
APBA2_1, Q99767 = target: T1, APBA2_1, Q99767
ARHGEF12, Q9NZN5-2 = target: ARHGEF12, Q9NZN5-2
CASK, O14936 = target: CASK, O14936
DLG3_1, Q92796 = target: T2, DLG3_1, Q92796
DLG3_2, Q92796 = target: T3, DLG3_2, Q92796
DLG5_1, Q8TDM6 = target: DLG5_1, Q8TDM6
FRMPD4, Q14CM0 = target: FRMPD4, Q14CM0
GORASP2, Q9H8Y8 = target: GORASP2, Q9H8Y8
GRID2IP_2, A4D2P6 = target: GRID2IP_2, A4D2P6
Inadl_1, Q8NI35 = target: Inadl_1, Q8NI35
LIN7A, O14910 = target: T4, LIN7A, O14910
LIN7B, Q9HAP6 = target: T5, LIN7B, Q9HAP6
MAGI1_1, Q96QZ7 = target: MAGI1_1, Q96QZ7
MAST2, Q6P0Q8 = target: MAST2, Q6P0Q8
NHERF4_2, Q86UT5 = target: NHERF4_2, Q86UT5
PDZRN3_1, Q9UPQ7 = target: T6, PDZRN3_1, Q9UPQ7
PICK1, Q9NRD5 = target: PICK1, Q9NRD5
RADIL, Q96JH8 = target: T7, RADIL, Q96JH8
SNTA1, Q13424 = target: T8, SNTA1, Q13424
SNTG1, Q9NSN8 = target: T9, SNTG1, Q9NSN8
SNTG2, Q9NY99 = target: T10, SNTG2, Q9NY99
TIAM2, Q8IVF5 = target: T11, TIAM2, Q8IVF5
TJP1_2, Q07157 = target: TJP1_2, Q07157
TX1BP3, O14907 = target: T12, TX1BP3, O14907

Sequence of GRID2IP_2, A4D2P6 (A4D2P6 272-370): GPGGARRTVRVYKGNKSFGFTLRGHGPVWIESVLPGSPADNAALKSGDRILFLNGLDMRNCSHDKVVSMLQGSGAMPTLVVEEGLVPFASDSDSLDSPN
Sequence of MAGI1_1, Q96QZ7 (Q96QZ7 1-106): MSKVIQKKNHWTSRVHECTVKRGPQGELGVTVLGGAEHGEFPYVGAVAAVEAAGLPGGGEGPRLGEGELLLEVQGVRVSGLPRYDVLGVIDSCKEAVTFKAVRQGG
Sequence of Inadl_1, Q8NI35 (Q8NI35 113-229): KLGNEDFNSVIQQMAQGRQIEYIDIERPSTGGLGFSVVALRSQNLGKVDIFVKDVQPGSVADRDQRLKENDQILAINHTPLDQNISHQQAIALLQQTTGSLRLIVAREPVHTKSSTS
Sequence of TJP1_2, Q07157 (Q07157 181-274): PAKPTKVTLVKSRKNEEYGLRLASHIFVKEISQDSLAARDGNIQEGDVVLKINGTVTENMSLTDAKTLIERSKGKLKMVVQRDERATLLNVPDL
Sequence of FRMPD4, Q14CM0 (Q14CM0 67-160): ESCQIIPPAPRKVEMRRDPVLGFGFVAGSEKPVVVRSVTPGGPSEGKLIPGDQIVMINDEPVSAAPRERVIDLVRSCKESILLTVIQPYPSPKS
Sequence of PICK1, Q9NRD5 (Q9NRD5 17-115): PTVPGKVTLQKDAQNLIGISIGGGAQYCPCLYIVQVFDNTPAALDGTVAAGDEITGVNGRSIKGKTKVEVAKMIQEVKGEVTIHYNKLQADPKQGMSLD
Sequence of ARHGEF12, Q9NZN5-2 (Q9NZN5 other isoform, or with tags, fused parts or gaps): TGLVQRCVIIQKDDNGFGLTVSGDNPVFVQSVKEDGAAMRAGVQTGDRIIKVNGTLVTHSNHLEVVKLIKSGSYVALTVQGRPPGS
Sequence of CASK, O14936 (O14936 487-570): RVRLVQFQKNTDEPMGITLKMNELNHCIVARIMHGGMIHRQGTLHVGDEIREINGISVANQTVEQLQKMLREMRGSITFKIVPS
Sequence of NHERF4_2, Q86UT5 (Q86UT5 220-308): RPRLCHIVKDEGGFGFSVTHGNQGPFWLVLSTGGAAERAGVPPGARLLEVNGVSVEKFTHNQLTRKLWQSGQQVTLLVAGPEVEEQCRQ
Sequence of DLG5_1, Q8TDM6 (Q8TDM6 617-713): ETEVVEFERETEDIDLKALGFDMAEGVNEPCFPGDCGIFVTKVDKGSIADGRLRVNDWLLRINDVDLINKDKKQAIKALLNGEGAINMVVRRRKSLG
Sequence of MAST2, Q6P0Q8 (Q6P0Q8 1099-1202): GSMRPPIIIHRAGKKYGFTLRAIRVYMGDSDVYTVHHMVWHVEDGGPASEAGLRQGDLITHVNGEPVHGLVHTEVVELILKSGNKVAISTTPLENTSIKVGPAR

| Binder | pKd (APBA2_1, Q99767) | pKd (ARHGEF12, Q9NZN5-2) | pKd (CASK, O14936) | pKd (DLG3_1, Q92796) | pKd (DLG3_2, Q92796) | pKd (DLG5_1, Q8TDM6) | pKd (FRMPD4, Q14CM0) | pKd (GORASP2, Q9H8Y8) | pKd (GRID2IP_2, A4D2P6) | pKd (Inadl_1, Q8NI35) | pKd (LIN7A, O14910) | pKd (LIN7B, Q9HAP6) | pKd (MAGI1_1, Q96QZ7) | pKd (MAST2, Q6P0Q8) | pKd (NHERF4_2, Q86UT5) | pKd (PDZRN3_1, Q9UPQ7) | pKd (PICK1, Q9NRD5) | pKd (RADIL, Q96JH8) | pKd (SNTA1, Q13424) | pKd (SNTG1, Q9NSN8) | further results |
| --- | --- | --- | --- | --- | --- | --- | --- | --- | --- | --- | --- | --- | --- | --- | --- | --- | --- | --- | --- | --- | --- |
| LAHVKHKEQI [AQP3, Q92482] | below the threshold | below the threshold | below the threshold | below the threshold | below the threshold | below the threshold | below the threshold | below the threshold | below the threshold | below the threshold | below the threshold | below the threshold | below the threshold | below the threshold | below the threshold | below the threshold | 3.98 | below the threshold | below the threshold | below the threshold | pKd (SNTG2, Q9NY99): below the threshold; pKd (TIAM2, Q8IVF5): below the threshold; pKd (TJP1_2, Q07157): below the threshold; pKd (TX1BP3, O14907): below the threshold |
| APIAGFSSFV [SDK2, Q58EX2] | below the threshold | 4.14 | below the threshold | 3.88 | 4.07 | below the threshold | below the threshold | 4.03 | 4.61 | below the threshold | below the threshold | below the threshold | below the threshold | 4.73 | below the threshold | 3.78 | below the threshold | 5.17 | 4.09 | 3.83 | pKd (SNTG2, Q9NY99): below the threshold; pKd (TIAM2, Q8IVF5): below the threshold; pKd (TJP1_2, Q07157): below the threshold; pKd (TX1BP3, O14907): 4.84 |
| REEPDHSTEV [CCRL2, O00421] | below the threshold | 4.37 | below the threshold | 4.26 | 4.59 | 3.63 | 3.47 | 3.48 | 4.15 | below the threshold | below the threshold | below the threshold | below the threshold | 5.3 | below the threshold | 4.2 | below the threshold | 3.96 | 4.45 | 4.36 | pKd (SNTG2, Q9NY99): 3.73; pKd (TIAM2, Q8IVF5): below the threshold; pKd (TJP1_2, Q07157): below the threshold; pKd (TX1BP3, O14907): 3.49 |
| RFQQRMQTHV [KIRREL1, Q96J84] | below the threshold | 4.44 | below the threshold | 3.57 | 4.69 | below the threshold | below the threshold | 4.12 | 3.96 | below the threshold | below the threshold | below the threshold | below the threshold | 5.73 | below the threshold | below the threshold | below the threshold | 3.9 | below the threshold | below the threshold | pKd (SNTG2, Q9NY99): below the threshold; pKd (TIAM2, Q8IVF5): 3.97; pKd (TJP1_2, Q07157): below the threshold; pKd (TX1BP3, O14907): 4.85 |
| QSYPSKHDYV [CLDN18, P56856] | 3.57 | below the threshold | below the threshold | below the threshold | below the threshold | below the threshold | 3.57 | 4.13 | below the threshold | below the threshold | below the threshold | below the threshold | below the threshold | 3.87 | 3.59 | below the threshold | 4.26 | 4.35 | 3.58 | below the threshold | pKd (SNTG2, Q9NY99): below the threshold; pKd (TIAM2, Q8IVF5): below the threshold; pKd (TJP1_2, Q07157): 3.61; pKd (TX1BP3, O14907): 4.17 |
| EPQYQPGENL [SRC, P12931] | below the threshold | below the threshold | below the threshold | below the threshold | below the threshold | below the threshold | 4.12 | below the threshold | below the threshold | below the threshold | below the threshold | below the threshold | below the threshold | below the threshold | below the threshold | below the threshold | below the threshold | below the threshold | below the threshold | below the threshold | pKd (SNTG2, Q9NY99): below the threshold; pKd (TIAM2, Q8IVF5): below the threshold; pKd (TJP1_2, Q07157): below the threshold; pKd (TX1BP3, O14907): below the threshold |
